Publication doi:10.1101/2022.03.01.482405

What was measured:
[1] = target: Photosystem I protomer from Thermosynechococcus elongatus BP-1 (His10-tag on PsaF) (Thermosynechococcus elongatus BP-1) (UniProt P0A405); test: cryo-EM structure
[2] = target: Photosystem I trimer from Thermosynechococcus elongatus BP-1 (His10-tag on PsaF) (Thermosynechococcus elongatus BP-1) (UniProt P0A405); test: ITC

stoichiometry N [1] | Kd [2] | Substance
3 | – | Photosystem I protomer from Thermosynechococcus elongatus BP-1 (His10-tag on PsaF) (from UniProt P0A405;P0A407;P0A415;P0A420;P0A423;P0A401;P0A427;P0A429;P0A425;Q8DGB4;P0A403) (complex)
– | 800 µM | gallium-substituted ferredoxin from Thermosynechococcus elongatus BP-1 (from UniProt P0A3C9) (natural protein)
